Like-named read-outs stand apart in the source and are kept apart here. Values belong to the molecule of their own block, whether it stands above or below them.
How the values were obtained:
[1] = target: Myc-(C32G)CAP2 (UniProt P40123); test: proximity ligation
[2] = target: cofilin (endogenous, primary hippocampal neurons) (rat (endogenous in primary hippocampal neurons)) (UniProt P45592); test: proximity ligation
[3] = target: the molecule itself; test: non-reducing SDS-PAGE with Western blot
[4] = target: the molecule itself; test: non-reducing SDS-PAGE with Western blot; remark: listed apart in the source

Chain of cofilin (endogenous, primary hippocampal neurons) (rat (endogenous in primary hippocampal neurons)) (P45592 whole entry): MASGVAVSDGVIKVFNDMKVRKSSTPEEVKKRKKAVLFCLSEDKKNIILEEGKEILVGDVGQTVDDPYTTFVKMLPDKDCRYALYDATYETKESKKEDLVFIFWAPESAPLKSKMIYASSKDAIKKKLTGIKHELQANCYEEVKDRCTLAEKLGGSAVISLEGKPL

- PLA clusters/μm [1]: 0.566 clusters/μm
- PLA clusters/μm (cLTP) [1]: 0.461 clusters/μm
Molecule: EGFP-CAP2 (from UniProt Q9CYT6 1-476) (natural protein)

- PLA clusters/μm [2]: 0.0144 clusters/μm
- PLA clusters/μm (cLTP) [2]: 0.0315 clusters/μm
Molecule: Myc-(C32G)CAP2 (from UniProt P40123 1-477) (natural protein)

- PLA clusters/μm [2]: 0.032 clusters/μm
- PLA clusters/μm (CTRL) [2]: 0.0317 clusters/μm
- PLA clusters/μm (cLTP) [2]: 0.0984 clusters/μm
Molecule: Myc-CAP2 (from UniProt Q9CYT6 1-476) (natural protein)

B1: CAP2 (endogenous, human hippocampus) (natural protein)
chain: MANMQGLVERLERAVSRLESLSAESHRPPGNCGEVNGVIAGVAPSVEAFDKLMDSMVAEFLKNSRILAGDVETHAEMVHSAFQAQRAFLLMASQYQQPHENDVAALLKPISEKIQEIQTFRERNRGSNMFNHLSAVSESIPALGWIAVSPKPGPYVKEMNDAATFYTNRVLKDYKHSDLRHVDWVKSYLNIWSELQAYIKEHHTTGLTWSKTGPVASTVSAFSVLSSGPGLPPPPPPLPPPGPPPLFENEGKKEESSPSRSALFAQLNQGEAITKGLRHVTDDQKTYKNPSLRAQGGQTQSPTKSHTPSPTSPKSYPSQKHAPVLELEGKKWRVEYQEDRNDLVISETELKQVAYIFKCEKSTIQIKGKVNSIIIDNCKKLGLVFDNVVGIVEVINSQDIQIQVMGRVPTISINKTEGCHIYLSEDALDCEIVSAKSSEMNILIPQDGDYREFPIPEQFKTAWDGSKLITEPAEIMA
- stoichiometry N [3]: 2

B2: CAP2 (endogenous, primary hippocampal neurons) (natural protein)
chain: MADMLGLMQRLEFAVSRLERLSSGLHEPPGGCGEVNSLSRGIVAPSVEAFDKLINSMVAEFLKNSRVLAGDVETHAEMVHGAFQAQRAFLLMVSQHQQPQENEVAVLLKPISEKIQEIQTFRERNRGSDMFNHLSAVSESIAALGWIAVSPKPGPYVKEMNDAATFYTNRVLRDYKHSDLRHVDWVRSYLKIWSELQAYIKEHHTTGLTWSKTGPVASTASAFSILSSGPGLPPPPPPPPPPGPPPPFENEGGKEEPSPSRSALFAQLNQGEAITKGLRHVTDDKKIYKNPSLRAQGQIRSPTKTRTPSPTSSKSNSPQKHAPVLELEGKKWRVEYQEDRNDLVISETELKQVAYIFKCDKSTLQIKGKVNSITVDNCKKFGLVFDHVVGIVEVINSKDIQIQVMGRVPTISINKTEGCHLYLSKDALDCEIVSAKSSEMNVLVPQGDDYREFPIPEQFKTIWDGSKLITEPAEIMA
- stoichiometry N [3]: 2

B3: CAP2 (endogenous, rat hippocampus) (natural protein)
chain: B2 chain
- stoichiometry N [3]: 2

B4: CAP2 (endogenous, mouse hippocampus) (natural protein)
chain: MTDMAGLMERLERAVIRLEQLSAGLDGPPRGCGEVNGVNGGVAPSVEAFDKLINSMVAEFLKNSRVLAGDVETHAEMVHGAFQAQRAFLLMVSQYQQPQENEVAVLLKPISEKIQEIQTFRERNRGSNMFNHLSAVSESIAALGWIAVSPKPGPYVKEMNDAATFYTNRVLKDYKHSDLRHVDWVRSYLNIWSELQAYIREHHTTGLTWSKTGPVASTASAFSILSSGPGLPPPPPPPPPPGPPPPFENEDKKEEPSPSRSALFAQLNQGEAITKGLRHVTDDKKTYKNPSLRAQGQIRSPTKTHTPSPTSPKSNSPQKHTPVLELEGKKWRVEYQEDRNDLVISETELKQVAYIFKCDKSTLQIKGKVNSITVDNCKKFGLVFDHVVGIVEVINSKDIQIQVMGRVPTISINKTEGCHLYLSEDALDCEIVSAKSSEMNVLVPQDDDYREFPIPEQFKTIWDGSKLVTEPAEIMA
- stoichiometry N [3]: 2

B5: Myc-CAP2 (natural protein)
chain: B4 chain
- stoichiometry N [4]: 2

Reference: paper PMC7566557 (Brain Communications, 2020)
